The results in this text go back to IntAct's records for PubMed 12860405.

The chains are these.
B1: Interleukin-1 receptor-associated kinase 1 (Homo sapiens), P51617 (parent)
chain: MAGGPGPGEPAAPGAQHFLYEVPPWVMCRFYKVMDALEPADWCQFAALIVRDQTELRLCERSGQRTASVLWPWINRNARVADLVHILTHLQLLRARDIITAWHPPAPLPSPGTTAPRPSSIPAPAEAEAWSPRKLPSSASTFLSPAFPGSQTHSGPELGLVPSPASLWPPPPSPAPSSTKPGPESSVSLLQGARPFPFCWPLCEISRGTHNFSEELKIGEGGFGCVYRAVMRNTVYAVKRLKENADLEWTAVKQSFLTEVEQLSRFRHPNIVDFAGYCAQNGFYCLVYGFLPNGSLEDRLHCQTQACPPLSWPQRLDILLGTARAIQFLHQDSPSLIHGDIKSSNVLLDERLTPKLGDFGLARFSRFAGSSPSQSSMVARTQTVRGTLAYLPEEYIKTGRLAVDTDTFSFGVVVLETLAGQRAVKTHGARTKYLKDLVEEEAEEAGVALRSTQSTLQAGLAADAWAAPIAMQIYKKHLDPRPGPCPPELGLGLGQLACCCLHRRAKRRPPMTQVYERLEKLQAVVAGVPGHSEAASCIPPSPQENSYVSSTGRAHSGAAPWQPLAAPSGASAQAAEQLQRGPNQPVESDESLGGLSAALRSWHLTPSCPLDPAPLREAGCPQGDTAGESSWGSGPGSRPTAVEGLALGSSASSSSEPPQIIINPARQKMVQKLALYEDGALDSLQLLSSSSLPGLGLEQDRQGPEESDEFQS
partner: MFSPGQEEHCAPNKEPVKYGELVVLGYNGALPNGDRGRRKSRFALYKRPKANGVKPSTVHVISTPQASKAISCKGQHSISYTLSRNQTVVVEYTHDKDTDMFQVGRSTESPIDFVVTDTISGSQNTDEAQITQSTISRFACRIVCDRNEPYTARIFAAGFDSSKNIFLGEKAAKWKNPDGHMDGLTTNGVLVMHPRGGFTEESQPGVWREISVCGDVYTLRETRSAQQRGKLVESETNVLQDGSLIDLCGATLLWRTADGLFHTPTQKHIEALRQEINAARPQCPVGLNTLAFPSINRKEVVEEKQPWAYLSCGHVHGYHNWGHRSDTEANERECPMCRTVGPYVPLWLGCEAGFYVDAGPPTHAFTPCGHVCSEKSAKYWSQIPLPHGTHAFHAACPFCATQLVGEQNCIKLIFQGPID
B2: Interleukin-1 receptor-associated kinase 4 (Homo sapiens), Q9NWZ3 (parent)
chain: MNKPITPSTYVRCLNVGLIRKLSDFIDPQEGWKKLAVAIKKPSGDDRYNQFHIRRFEALLQTGKSPTSELLFDWGTTNCTVGDLVDLLIQNEFFAPASLLLPDAVPKTANTLPSKEAITVQQKQMPFCDKDRTLMTPVQNLEQSYMPPDSSSPENKSLEVSDTRFHSFSFYELKNVTNNFDERPISVGGNKMGEGGFGVVYKGYVNNTTVAVKKLAAMVDITTEELKQQFDQEIKVMAKCQHENLVELLGFSSDGDDLCLVYVYMPNGSLLDRLSCLDGTPPLSWHMRCKIAQGAANGINFLHENHHIHRDIKSANILLDEAFTAKISDFGLARASEKFAQTVMTSRIVGTTAYMAPEALRGEITPKSDIYSFGVVLLEIITGLPAVDEHREPQLLLDIKEEIEDEEKTIEDYIDKKMNDADSTSVEAMYSVASQCLHEKKNKRPDIKKVQQLLQEMTAS
partner: B1 partner

In one assay the parent is B1. The settings on record: with peli2_human PELI2, Q9HAT8.
K239S: the “effect of a mutation on the interaction” value is recorded as “disrupting interaction”.

A further assay covers variants of B2. The settings on record: with peli2_human PELI2, Q9HAT8.
As for MNKPITPSTYVRCLNVGLIRKLSDFIDPQEGWKKLAVAIKKPSGDDRYNQFHIRRFEALLQTGKSPTSELLFDWGTTNCTVGDLVDLLIQNEFFAPASLLLPDAVPKTANTLPSKEAITVQQKQMPFCDKDRTLMTPVQNLEQSYMPPDSSSPENKSLEVSDTRFHSFSFYELKNVTNNFDERPISVGGNKMGEGGFGVVYKGYVNNTTVAVAKLAAMVDITTEELKQQFDQEIKVMAKCQHENLVELLGFSSDGDDLCLVYVYMPNGSLLDRLSCLDGTPPLSWHMRCKIAQGAANGINFLHENHHIHRDIKSANILLDEAFTAKISDFGLARASEKFAQTVMTSRIVGTTAYMAPEALRGEITPKSDIYSFGVVLLEIITGLPAVDEHREPQLLLDIKEEIEDEEKTIEDYIDKKMNDADSTSVEAMYSVASQCLHEKKNKRPDIKKVQQLLQEMTAS [K213A], the “effect of a mutation on the interaction” value was “disrupting interaction”.
